{"source": "paper doi:10.1101/2025.10.14.682297", "about": "(bioRxiv, 2025)", "proteins": {"B1": {"name": "human ZNFX1 (NFX1-type zinc finger-containing 1), full-length, 2xStrep-tagged, wild type (enzyme, UniProt Q9P2E3 1-1918, looked up)", "chain": "MEERRPHLDARPRNSHTNHRGPVDGELPPRARNQANNPPANALRGGASHPGRHPRANNHPAAYWQREERFRAMGRNPHQGRRNQEGHASDEARDQRHDQENDTRWRNGNQDCRNRRPPWSNDNFQQWRTPHQKPTEQPQQAKKLGYKFLESLLQKDPSEVVITLATSLGLKELLSHSSMKSNFLELICQVLRKACSSKMDRQSVLHVLGILKNSKFLKVCLPAYVVGMITEPIPDIRNQYPEHISNIISLLQDLVSVFPASSVQETSMLVSLLPTSLNALRASGVDIEEETEKNLEKVQTIIEHLQEKRREGTLRVDTYTLVQPEAEDHVESYRTMPIYPTYNEVHLDERPFLRPNIISGKYDSTAIYLDTHFRLLREDFVRPLREGILELLQSFEDQGLRKRKFDDIRIYFDTRIITPMCSSSGIVYKVQFDTKPLKFVRWQNSKRLLYGSLVCMSKDNFETFLFATVSNREQEDLCRGIVQLCFNEQSQQLLAEVQPSDSFLMVETTAYFEAYRHVLEGLQEVQEEDVPFQRNIVECNSHVKEPRYLLMGGRYDFTPLIENPSATGEFLRNVEGLRHPRINVLDPGQWPSKEALKLDDSQMEALQFALTRELAIIQGPPGTGKTYVGLKIVQALLTNESVWQISLQKFPILVVCYTNHALDQFLEGIYNCQKTSIVRVGGRSNSEILKQFTLRELRNKREFRRNLPMHLRRAYMSIMTQMKESEQELHEGAKTLECTMRGVLREQYLQKYISPQHWESLMNGPVQDSEWICFQHWKHSMMLEWLGLGVGSFTQSVSPAGPENTAQAEGDEEEEGEEESSLIEIAEEADLIQADRVIEEEEVVRPQRRKKEESGADQELAKMLLAMRLDHCGTGTAAGQEQATGEWQTQRNQKKKMKKRVKDELRKLNTMTAAEANEIEDVWQLDLSSRWQLYRLWLQLYQADTRRKILSYERQYRTSAERMAELRLQEDLHILKDAQVVGMTTTGAAKYRQILQKVEPRIVIVEEAAEVLEAHTIATLSKACQHLILIGDHQQLRPSANVYDLAKNFNLEVSLFERLVKVNIPFVRLNYQHRMCPEIARLLTPHIYQDLENHPSVLKYEKIKGVSSNLFFVEHNFPEQEIQEGKSHQNQHEAHFVVELCKYFLCQEYLPSQITILTTYTGQLFCLRKLMPAKTFAGVRVHVVDKYQGEENDIILLSLVRSNQEGKVGFLQISNRICVALSRAKKGMYCIGNMQMLAKVPLWSKIIHTLRENNQIGPMLRLCCQNHPETHTLVSKASDFQKVPEGGCSLPCEFRLGCGHVCTRACHPYDSSHKEFQCMKPCQKVICQEGHRCPLVCFQECQPCQVKVPKTIPRCGHEQMVPCSVPESDFCCQEPCSKSLRCGHRCSHPCGEDCVQLCSEMVTIKLKCGHSQPVKCGHVEGLLYGGLLVKCTTKCGTILDCGHPCPGSCHSCFEGRFHERCQQPCKRLLICSHKCQEPCIGECPPCQRTCQNRCVHSQCKKKCGELCSPCVEPCVWRCQHYQCTKLCSEPCNRPPCYVPCTKLLVCGHPCIGLCGEPCPKKCRICHMDEVTQIFFGFEDEPDARFVQLEDCSHIFEVQALDRYMNEQKDDEVAIRLKVCPICQVPIRKNLRYGTSIKQRLEEIEIIKEKIQGSAGEIATSQERLKALLERKSLLHQLLPEDFLMLKEKLAQKNLSVKDLGLVENYISFYDHLASLWDSLKKMHVLEEKRVRTRLEQVHEWLAKKRLSFTSQELSDLRSEIQRLTYLVNLLTRYKIAEKKVKDSIAVEVYSVQNILEKTCKFTQEDEQLVQEKMEALKATLPCSGLGISEEERVQIVSAIGYPRGHWFKCRNGHIYVIGDCGGAMERGTCPDCKEVIGGTNHTLERSNQLASEMDGAQHAAWSDTANNLMNFEEIQGMM"}}, "target": "the molecule itself", "experiment": "cryo-EM structure", "data": [{"protein": "B1", "values": [{"measurement": "stoichiometry N", "result": 2}]}]}
